Test results published in patent US20190075806A1, “PROTEINASE B AND LACTASE SOLUTION USING ITS PROPERTIES AND METHOD FOR PRODUCING THE SAME” (GODO SHUSEI CO., LTD., priority 2016, published 2019).
“Also recorded” adds a separate entry of the source. Where two headings read alike, the source gives them in different places.

Legend:
Azocasein = experiment: Substrate specificity, Azocasein; type: biochemical
Description: As a method for evaluating an influence on the fragmentation activity of PrB, the “lactase-fragmenting activity” can be also used as its index. This “lactase-fragmenting activity” indicates the enzyme activity of fragmenting the lactase protein, and an actual index can be defined as follows. When the band strength around 120 kDa of a sample to which PrB is not added is regarded as 100%, the band area relative value around 120 kDa of samples obtained by adding 1 to 4 mACU of PrB is found as a relative value (1 ACU means the amount of enzyme which raises the absorbance at 428 nm by 1 at 30° C. for an hour using azocasein as a substrate). Next, the amount of enzyme added when the lactase band after reaction at 30° C. for an hour decreases by 20% compared to when PrB is not added is regarded as 1 LDU (Lactase Degradation Unit) of lactase-fragmenting activity.

Azocoll = experiment: Azocoll-decomposing activity; type: biochemical; details: for SUBSTRATE SPECIFICITY: substrate Azocoll
[1] = Substrate specificity, Bz-Tyr-pNa; type: biochemical
FITC-casein = experiment: FITC-casein-decomposing activity; type: biochemical; details: for SUBSTRATE SPECIFICITY: substrate FITC-casein
Casein = experiment: Substrate specificity, Casein; type: biochemical
[2] = Substrate specificity, Ac-Phe-pNa; type: biochemical
lactase [3] = experiment: Fragmentation of lactase confirmed by SDS-PAGE; type: biochemical, Kluyveromyces
Description: First, the state of fragmentation of lactase in a lactase solution can be confirmed by SDS-PAGE using 10% polyacrylamide gel. For example, a lactase solution is diluted with purified water as needed, and mixed with Sample Buffer for SDS-PAGE at 1:1, and electrophoresis samples are prepared by heat treatment at 100° C. for 3 minutes. Next, the standard and electrophoresis samples are applied to 10% acrylamide gel, and subjected to electrophoresis. The molecular weight of lactase can be also roughly estimated by comparison with the standard. As the standard, CLEARLY Stained Protein Ladder (Takara #3454A) and the like are used. The gel after electrophoresis is subjected to protein staining using a CBB staining solution (BIO-RAD #161-0786).
The gel after staining was scanned as a grayscale image with a scanner GT-X820 manufactured by Seiko Epson Corporation. Furthermore, the concentration of each band (protein amount) can be also measured by Image J software (NIH, Bethesda, Md.). […]
As prior consideration, the following test was carried out about a relationship between the fragmentation and heat stability of lactase. […] As the conditions of the heat stability test, using an enzyme solution (lactase solution) diluted to 0.25 NLU/g, the activity after treatment at 50° C. for 10 minutes was calculated as the remaining activity (%) to that of an untreated sample. […]

[4] = Substrate specificity, Bz-Arg-pNa; type: biochemical
BSA = experiment: Substrate specificity, BSA; type: biochemical
lactase [5] = experiment: Lactase-fragmenting activity (LDU); type: biochemical, Kluyveromyces; details: for SUBSTRATE SPECIFICITY: substrate Lactase
Description: In addition, the “lactase-fragmenting action” in the claims and description can be an action by which the neutral lactase around 120 kDa in SDS-PAGE is fragmented, and preferably the fragments of the fragmented lactase show the neutral lactase activity. As a method for evaluating an influence on the fragmentation activity of PrB, the “lactase-fragmenting activity” can be also used as its index. This “lactase-fragmenting activity” indicates the enzyme activity of fragmenting the lactase protein, and an actual index can be defined as follows. When the band strength around 120 kDa of a sample to which PrB is not added is regarded as 100%, the band area relative value around 120 kDa of samples obtained by adding 1 to 4 mACU of PrB is found as a relative value (1 ACU means the amount of enzyme which raises the absorbance at 428 nm by 1 at 30° C. for an hour using azocasein as a substrate). Next, the amount of enzyme added when the lactase band after reaction at 30° C. for an hour decreases by 20% compared to when PrB is not added is regarded as 1 LDU (Lactase Degradation Unit) of lactase-fragmenting activity.

[6] = pH 7.0, cited from earlier work
[7] = FITC-casein-decomposing activity
[8] = FITC-casein-decomposing activity, listed as K. lactis

B1: S. cerevisiae: PrB derived from S. cerevisiae, comparison enzyme (protein, UniProt P09232 281-574, looked up)
Cerevisin: EFDTQNSAPWGLARISHRERLNLGSFNKYLYDDDAGRGVTSYVIDTGVNINHKDFEKRAIWGKTIPLNDEDLDGNGHGTHCAGTIASKHYGVAKNANVVAVKVLRSNGSGTMSDVVKGVEYAAKAHQKEAQEKKKGFKGSTANMSLGGGKSPALDLAVNAAVEVGIHFAVAAGNENQDACNTSPASADKAITVGASTLSDDRAYFSNWGKCVDVFAPGLNILSTYIGSDDATATLSGTSMASPHVAGLLTYFLSLQPGSDSEFFELGQDSLTPQQLKKKLIHYSTKDILFDIPE
SUBSTRATE SPECIFICITY (Azocasein): 1
HEAT STABILITY (Azocoll; Azocoll-decomposing activity): 25 °C
INHIBITOR (Azocoll; Azocoll-decomposing activity): PCMB, PMSF,; also recorded: HgCl2
OPTIMUM REACTION pH (Azocoll; Azocoll-decomposing activity): pH 7.0
SUBSTRATE SPECIFICITY (Azocoll): 9.1
SUBSTRATE SPECIFICITY [1]: 0.2

B2: PrB: proteinase B derived from Kluyveromyces lactis, neutral protease with lactase-fragmenting activity, SEQ ID NO:1 (protein, listed as Kluyveromyces lactis)
chain: SFNTQNSAPWGLARISHREKLNLGSFNKYLYDDDAGKGVTAYVVDTGVNVNHKDFDGRAVWGKTIPKDDPDVDGNGHGTHCAGTIGSVHYGVAKNADIVAVKVLRSNGSGTMSDVVKGVEYVAEAHKKAVEEQKKGFKGSTANMSLGGGKSPALDLAVNAAVKAGVHFAVAAGNENQDACNTSPAAAENAITVGASTLSDERAYFSNWGKCVDIFGPGLNILSTYIGSDTATATLSGTSMATPHVVGLLTYFLSLQPDADSEYFHAAGGITPSQLKKKLIDFSTKNVLSDLPEDTVNY
ACTIVATOR (FITC-casein; [7]): Ca^2+
HEAT STABILITY (FITC-casein; [7]): 40 °C
INHIBITOR (FITC-casein; [7]): Cu^2+, Fe^2+
OPTIMUM REACTION TEMPERATURE (FITC-casein; [7]): about 40 °C
OPTIMUM REACTION pH (FITC-casein; [7]): about 8.0 pH
pH STABILITY (FITC-casein; [7]): 5.0 to 8.0 pH
OPTIMUM REACTION TEMPERATURE (FITC-casein; [8]): 40 °C
OPTIMUM REACTION pH (FITC-casein; [8]): pH 8.0
pH STABILITY (FITC-casein; [8]): pH 5.0~8.0
SUBSTRATE SPECIFICITY (FITC-casein): high substrate specificity
SUBSTRATE SPECIFICITY (FITC-casein; listed as K. lactis): 78
SUBSTRATE SPECIFICITY (Casein): 0
SUBSTRATE SPECIFICITY [2]: 0
SUBSTRATE SPECIFICITY (Azocasein): 1
state of fragmentation of lactase (SDS-PAGE) (lactase [3]): fragmentation of lactase proceeded
amount of PrB at which fragmentation was not caused (lactase [3]; with respect to 1 NLU of lactase activity, added to F-1, 30° C. for 20 hours): 0.26 ng
SUBSTRATE SPECIFICITY (Azocoll): 1.9
SUBSTRATE SPECIFICITY [4]: 0
SUBSTRATE SPECIFICITY (BSA): 0
SUBSTRATE SPECIFICITY [1]: 0
INHIBITOR (lactase [5]; lactase-fragmenting activity): AEBSF
OPTIMUM REACTION TEMPERATURE (lactase [5]; lactase-fragmenting activity): 40 °C
OPTIMUM REACTION pH (lactase [5]; lactase-fragmenting activity): pH 7.0
SUBSTRATE SPECIFICITY (lactase [5]): high substrate specificity
SUBSTRATE SPECIFICITY (lactase [5]; listed as K. lactis): 1159

B3: lactase described in Patent Literature 1: lactase from cultures of a strain of Kluyveromyces lactis (JP 60-18394 B) (protein, UniProt P00723 1-1025, looked up)
Beta-galactosidase: MSCLIPENLRNPKKVHENRLPTRAYYYDQDIFESLNGPWAFALFDAPLDAPDAKNLDWETAKKWSTISVPSHWELQEDWKYGKPIYTNVQYPIPIDIPNPPTVNPTGVYARTFELDSKSIESFEHRLRFEGVDNCYELYVNGQYVGFNKGSRNGAEFDIQKYVSEGENLVVVKVFKWSDSTYIEDQDQWWLSGIYRDVSLLKLPKKAHIEDVRVTTTFVDSQYQDAELSVKVDVQGSSYDHINFTLYEPEDGSKVYDASSLLNEENGNTTFSTKEFISFSTKKNEETAFKINVKAPEHWTAENPTLYKYQLDLIGSDGSVIQSIKHHVGFRQVELKDGNITVNGKDILFRGVNRHDHHPRFGRAVPLDFVVRDLILMKKFNINAVRNSHYPNHPKVYDLFDKLGFWVIDEADLETHGVQEPFNRHTNLEAEYPDTKNKLYDVNAHYLSDNPEYEVAYLDRASQLVLRDVNHPSIIIWSLGNEACYGRNHKAMYKLIKQLDPTRLVHYEGDLNALSADIFSFMYPTFEIMERWRKNHTDENGKFEKPLILCEYGHAMGNGPGSLKEYQELFYKEKFYQGGFIWEWANHGIEFEDVSTADGKLHKAYAYGGDFKEEVHDGVFIMDGLCNSEHNPTPGLVEYKKVIEPVHIKIAHGSVTITNKHDFITTDHLLFIDKDTGKTIDVPSLKPEESVTIPSDTTYVVAVLKDDAGVLKAGHEIAWGQAELPLKVPDFVTETAEKAAKINDGKRYVSVESSGLHFILDKLLGKIESLKVKGKEISSKFEGSSITFWRPPTNNDEPRDFKNWKKYNIDLMKQNIHGVSVEKGSNGSLAVVTVNSRISPVVFYYGFETVQKYTIFANKINLNTSMKLTGEYQPPDFPRVGYEFWLGDSYESFEWLGRGPGESYPDKKESQRFGLYDSKDVEEFVYDYPQENGNHTDTHFLNIKFEGAGKLSIFQKEKPFNFKISDEYGVDEAAHACDVKRYGRHYLRLDHAIHGVGSEACGPAVLDQYRLKAQDFNFEFDLAFE
deactivated ([6]; 50° C. for 10 minutes): 45%
deactivated ([6]; 55° C. for 10 minutes): 100%
